In US8278415B2, “Dimeric high affinity EGFR constructs and uses thereof” (Centocor, Inc., priority 2006, dated 2012):

Columns and labels:
A431 cells = assay: FACS of P190-MMB constructs or cetuximab on A431 cells; assay type: cell-based, human; settings: excess EGF
sEGFR-MMB = molecular target: T1, sEGFR-MMB (Homo sapiens, UniProt P00533); assay: P190-MMB constructs, solid phase assays (BIAcore and ELISA) on immobilized sEGFR-MMB; assay type: binding
T1 construct: made in house; host or cells: HEK 293E
Excerpt: In contrast, 190-MMB as the 4316 construct, binds EGFR and the presence of excess EGF promotes its binding.

EGFR = molecular target: T2, EGFR (Homo sapiens, UniProt P00533); assay: FACE (Fast Activated Cell-based ELISA) of EGFR phosphorylation
T2 construct: endogenous in cells

B1: 4316: P190-MMB construct with the longest linker, Flex GGGGS, n 4, SEQ ID NO: 81 (protein)
chain: GGDPCTWEVWGRECLQGGGGSGGGGSGGGGSGGGGSCPPCPAPEAAGGPSVFLFPPKPKDTLMISRTPEVTCVVVDVSQEDPEVQFNWYVDGVEVHNAKTKPREEQFNSTYRVVSVLTVLHQDWLNGKEYKCKVSNKGLPSSIEKTISKAKGQPREPQVYTLPPSQEEMTKNQVSLTCLVKGFYPSDIAVEWESNGQPENNYKTTPPVLDSDGSFFLYSRLTVDKSRWQEGNVFSCSVMHEALHNHYTQKSLSLSLGK
For B1, the “effect of EGF on binding to A431” value (A431 cells) was “enhanced binding”, the on-rate (sEGFR-MMB; BIAcore, no dissociation constant obtained) was “much more pronounced on-rate than the other constructs” and the “binding in solid phase assays and cell-based FACS” value (sEGFR-MMB; comparison of linker lengths) was “best binder”. The “interference with EGF activation of EGFR” value (EGFR) was “nor interfere with EGF activation of EGFR” and the “EGFR phosphorylation (receptor activation)” value (EGFR; absence of EGF) was “did not induce EGFR phosphorylation”.
